Reference: PMC4755285 (Journal of biomolecular screening, 2015)
Read-outs that look alike come from different tables or passages of the source. One block for each molecule: values may come before it. Ends that are not written are not given here.

Legend:
Assay in all cases: fluorescence polarisation
[1] = biological target: FITC labeled HCN1 peptide (C-terminal 11 amino acids of HCN1)
[2] = biological target: FITC labeled HCN2 peptide (C-terminal 11 amino acids of HCN2)
[3] = biological target: FITC labeled HCN3 peptide (C-terminal 11 amino acids of HCN3)
[4] = biological target: FITC labeled HCN4 peptide (C-terminal 11 amino acids of HCN4)
TRIP8b(241-602) [5] = biological target: TRIP8b(241-602)
TRIP8b(241-602) [6] = biological target: TRIP8b(241-602); remark: listed apart in the source
TRIP8b(241-602) [7] = biological target: TRIP8b(241-602); remark: listed apart in the source
TRIP8b(241-602) [8] = biological target: TRIP8b(241-602); remark: listed apart in the source
[9] = biological target: T1, His tagged full length TRIP8b (1b-2) isoform
T1 chain: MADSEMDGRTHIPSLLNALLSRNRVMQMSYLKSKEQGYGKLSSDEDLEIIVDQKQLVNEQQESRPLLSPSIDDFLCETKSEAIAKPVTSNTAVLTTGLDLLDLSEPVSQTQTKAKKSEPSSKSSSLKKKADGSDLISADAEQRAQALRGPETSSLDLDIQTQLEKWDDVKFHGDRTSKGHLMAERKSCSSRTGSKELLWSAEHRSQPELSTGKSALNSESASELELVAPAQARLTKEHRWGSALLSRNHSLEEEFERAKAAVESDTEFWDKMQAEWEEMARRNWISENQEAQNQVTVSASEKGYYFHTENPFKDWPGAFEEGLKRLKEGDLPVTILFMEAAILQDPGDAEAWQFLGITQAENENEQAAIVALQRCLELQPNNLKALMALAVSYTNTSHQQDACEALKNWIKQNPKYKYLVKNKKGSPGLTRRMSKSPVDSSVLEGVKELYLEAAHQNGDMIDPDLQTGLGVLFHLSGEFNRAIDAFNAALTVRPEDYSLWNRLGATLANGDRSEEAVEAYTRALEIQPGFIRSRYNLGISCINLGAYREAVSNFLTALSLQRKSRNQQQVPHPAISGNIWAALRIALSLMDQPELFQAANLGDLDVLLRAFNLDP

- Kd [1]: 1230 nM
- fluorescence polarisation without competitor (mP) [1]: 224 mP
- Kd [2]: 910 nM
- Kd [3]: 10200 nM
- Kd [4]: 810 nM
Molecule: TRIP8b(241-602) (domain or fragment)

- IC50 (TRIP8b(241-602) [5]): 890 nM
- IC50 (TRIP8b(241-602) [6]): 700 nM
- IC50 (TRIP8b(241-602) [7]): 1770 nM
- IC50 (TRIP8b(241-602) [8]): 1600 nM
B1: unlabeled HCN1 peptide (peptide)
peptide: DAEKPRFASNL

- IC50 (TRIP8b(241-602) [6]): 760 nM
B2: unlabeled HCN2 peptide (peptide)
peptide: DSARSRLSSNL

- Kd (TRIP8b(241-602) [6]): 800 nM
- Kd [9]: 1030 ± 20 nM
B3: FITC labeled HCN1 peptide (C-terminal 11 amino acids of HCN1) (peptide)
peptide: DAEKPRFASNL
modifications: also: FITC label, position not given here

- IC50 (TRIP8b(241-602) [6]): 1930 nM
B4: unlabeled HCN4 peptide (peptide)
peptide: EPVRSKLPSNL
